Experimental data: publication PMC4134263
Where two headings read alike, the source gives them in different places.

Tests used:
PdhR [1] = molecular target: T1, PdhR (Escherichia coli, UniProt P0ACL9 1-254); experiment: EMSA
PdhR [2] = molecular target: T1, PdhR; experiment: EMSA; remark: listed apart in the source

T1 sequence (P0ACL9 whole entry): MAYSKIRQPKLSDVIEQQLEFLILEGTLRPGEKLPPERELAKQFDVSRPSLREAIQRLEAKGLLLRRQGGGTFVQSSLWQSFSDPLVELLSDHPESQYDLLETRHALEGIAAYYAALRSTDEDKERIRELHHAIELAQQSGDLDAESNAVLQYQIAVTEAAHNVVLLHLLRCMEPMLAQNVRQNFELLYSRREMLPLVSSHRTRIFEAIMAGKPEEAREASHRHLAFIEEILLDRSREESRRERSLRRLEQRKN

B1: lipA site 2 probe (dsDNA)
DNA 1: CAAAAATAGTTGATAATTACAACAATCTATTGAATTGAAACGC
DNA 2: GCGTTTCAATTCAATAGATTGTTGTAATTATCAACTATTTTTG
binding result (PdhR [1]): no binding

B2: lipA site 1 probe (dsDNA)
DNA 1: GAAACGCTTTCCTTCGTAATTCGCAACTGGAACACGCACGCTATGAG
DNA 2: CTCATAGCGTGCGTGTTCCAGTTGCGAATTACGAAGGAAAGCGTTTC
binding result (PdhR [2]): no binding
